± gives the standard deviation of the averaged measurements.
Experiment: total protein half-life in vivo (active degradation + dilution); higher = more stable protein
[1] = E. coli NCM3722 delta-clpP delta-lon delta-hslV, growth: N-lim chemostat, doubling time 6 h
[2] = E. coli NCM3722 delta-clpP, growth: N-lim chemostat, doubling time 6 h
[3] = E. coli NCM3722 delta-hslV, growth: N-lim chemostat, doubling time 6 h
[4] = E. coli NCM3722 delta-lon, growth: N-lim chemostat, doubling time 6 h
[5] = E. coli NCM3722 delta-smpB, growth: N-lim chemostat, doubling time 6 h
[6] = wild type E. coli NCM3722, growth: C-lim chemostat, doubling time 3 h
[7] = wild type E. coli NCM3722, growth: C-lim chemostat, doubling time 6 h
[8] = wild type E. coli NCM3722, growth: C-lim chemostat, doubling time 12 h
[9] = wild type E. coli NCM3722, growth: N-lim chemostat, doubling time 6 h
[10] = wild type E. coli NCM3722, growth: N-lim chemostat, doubling time 12 h
[11] = wild type E. coli NCM3722, growth: P-lim chemostat, doubling time 6 h
[12] = wild type E. coli NCM3722, growth: P-lim chemostat, doubling time 12 h

Row | Sequence | total protein half-life in vivo [1] [h] | total protein half-life in vivo [2] [h] | total protein half-life in vivo [3] [h] | total protein half-life in vivo [4] [h] | total protein half-life in vivo [5] [h] | total protein half-life in vivo [6] [h] | total protein half-life in vivo [7] [h] | total protein half-life in vivo [8] [h] | total protein half-life in vivo [9] [h] | total protein half-life in vivo [10] [h] | total protein half-life in vivo [11] [h] | total protein half-life in vivo [12] [h]
1 | MPLLDSFTVDHTRMEAPAVRVAKTMNTPHGDAITVFDLRFCVPNKEVMPERGIHTLEHLFAGFMRNHLNGNGVEIIDISPMGCRTGFYMSLIGTPDEQRVADAWKAAMEDVLKVQDQNQIPELNVYQCGTYQMHSLQEAQDIARSILERDVRINSNEELALPKEKLQELHI | 5.42 ± 0.74 | 4.79 ± 0.64 | 4.37 ± 0.6 | 4.38 ± 0.28 | 3.97 ± 0.12 | 2.71 ± 0.32 | 4.05 ± 0.31 | 7.07 ± 0.68 | 3.61 ± 0.1 | 5.61 ± 0.47 | 4.72 ± 0.19 | 9.47 ± 0.63
2 | MKIFLENLYHSDCYFLPIRDNQQVLVGVELITHFSSEDGTVRIPTSRVIAQLTEEQHWQLFSEQLELLKSCQHFFIQHKLFAWLNLTPQVATLLLERDNYAGELLKYPFIELLINENYPHLNEGKDNRGLLSLSQVYPLVLGNLGAGNSTMKAVFDGLFTRVMLDKSFIQQQITHRSFEPFIRAIQAQISPCCNCIIAGGIDTAEILAQITPFDFHALQGCLWPAVPINQITTLVQR | 4.97 ± 0.65 | 4.111 ± 0.0084 | 3.897 ± 0.0064 | 4.44 ± 0.36 | 3.866 ± 0.031 | 2.99 ± 0.1 | 6.47 ± 1.4 | 9.89 | 4.22 ± 0.84 | 7.69 ± 1.8 | 5.87 ± 0.37 | 11.5 ± 0.35
3 | MRVLLAPMEGVLDSLVRELLTEVNDYDLCITEFVRVVDQLLPVKVFHRICPELQNASRTPSGTLVRVQLLGQFPQWLAENAARAVELGSWGVDLNCGCPSKTVNGSGGGATLLKDPELIYQGAKAMREAVPAHLPVSVKVRLGWDSGEKKFEIADAVQQAGATELVVHGRTKEQGYRAEHIDWQAIGDIRQRLNIPVIANGEIWDWQSAQQCMAISGCDAVMIGRGALNIPNLSRVVKYNEPRMPWPEVVALLQKYTRLEKQGDTGLYHVARIKQWLSYLRKEYDEATELFQHVRVLNNSPDIARAIQAIDIEKL | 5.15 ± 0.54 | 4.72 ± 0.35 | 4.92 ± 0.12 |  | 4.76 ± 0.15 | 2.89 ± 0.34 |  | 10.6 | 5.2 ± 0.37 | 8.91 ± 1.2 | 5.81 ± 0.9 | 11.7 ± 1.4
4 | MTLKELLVGFGTQVRSIWMIGLHAFAKRETRMYPEEPVYLPPRYRGRIVLTRDPDGEERCVACNLCAVACPVGCISLQKAETKDGRWYPEFFRINFSRCIFCGLCEEACPTTAIQLTPDFEMGEYKRQDLVYEKEDLLISGPGKYPEYNFYRMAGMAIDGKDKGEAENEAKPIDVKSLLP [P0AFD6] | 6.29 ± 0.46 | 7.36 ± 0.22 | 6.38 ± 0.14 | 7.21 ± 0.13 | 6.351 ± 0.056 | 3.32 ± 0.17 | 6.25 ± 0.18 | 12 ± 1.3 | 5.99 ± 1.2 | 15.2 ± 0.83 | 6 ± 0.08 | 13.6 ± 2.2
5 | MSGLKQELGLAQGIGLLSTSLLGTGVFAVPALAALVAGNNSLWAWPVLIILVFPIAIVFAILGRHYPSAGGVAHFVGMAFGSRLERVTGWLFLSVIPVGLPAALQIAAGFGQAMFGWHSWQLLLAELGTLALVWYIGTRGASSSANLQTVIAGLIVALIVAIWWAGDIKPANIPFPAPGNIELTGLFAALSVMFWCFVGLEAFAHLASEFKNPERDFPRALMIGLLLAGLVYWGCTVVVLHFDAYGEKMAAAASLPKIVVQLFGVGALWIACVIGYLACFASLNIYIQSFARLVWSQAQHNPDHYLARLSSRHIPNNALNAVLGCCVVSTLVIHALEINLDALIIYANGIFIMIYLLCMLAGCKLLQGRYRLLAVVGGLLCVLLLAMVGWKSLYALIMLAGLWLLLPKRKTPENGITT |  |  |  | 3.09 | 5.32 |  |  |  |  |  | 4.1 | 12
6 | MAINFSPKVGEILECNFGNYPVSQNGPFSTTYYDGRIPPEMIKNRLVVVLNGKINGNACIVVPLSTTRDQDKLKRGMHVEIASNVINDLQFFDQQIRWAKADLVQQVSRNRLNRARTYRGYLNQCLPHELVADIQRAVIKSINAISLIN |  |  |  |  |  |  | 6.12 | 8.7 ± 2 |  |  | 4.05 | 8.56 ± 0.1
7 | MNPAVDNEFQQWLSQINQVCGNFTGRLLTERYTGVLDTHFAKGLKLSTVTTSGVNLSRTWQEVKGSDDAWFYTVFQLSGQAIMEQDERQVQIGAGDITLLDASRPCSLYWQESSKQISLLLPRTLLEQYFPHQKPICAERLDADLPMVQLSHRLLQESMNNPALSETESEAALQAMVCLLRPVLHQRESVQPRRERQFQKVVTLIDDNIREEILRPEWIAGETGMSVRSLYRMFADKGLVVAQYIRNRRLDFCADAIRHAADDEKLAGIGFHWGFSDQSHFSTVFKQRFGMTPGEYRRKFR | 6.1 ± 0.083 |  |  | 1.98 |  | 0.364 ± 0.09 | 0.661 ± 0.089 | 0.65 |  |  |  | 
8 | MIRSMTAYARREIKGEWGSATWEMRSVNQRYLETYFRLPEQFRSLEPVVRERIRSRLTRGKVECTLRYEPDVSAQGELILNEKLAKQLVTAANWVKMQSDEGEINPVDILRWPGVMAAQEQDLDAIAAEILAALDGTLDDFIVARETEGQALKALIEQRLEGVTAEVVKVRSHMPEILQWQRERLVAKLEDAQVQLENNRLEQELVLLAQRIDVAEELDRLEAHVKETYNILKKKEAVGRRLDFMMQEFNRESNTLASKSINAEVTNSAIELKVLIEQMREQIQNIE | 4.67 ± 0.13 | 4.26 ± 0.17 | 4.15 ± 0.007 | 4.46 ± 0.36 | 4.24 ± 0.048 | 3.203 ± 0.032 | 5.69 ± 0.37 | 9.42 ± 0.49 | 4.21 ± 0.05 | 6.64 ± 0.2 | 5.83 ± 0.37 | 12.9 ± 1.8

From the supplement of paper PMC11246515
